Test results published in patent US11110182B2, “Multifunctional RNA nanoparticles and methods for treating cancer and therapeutic resistant cancer” (University of Cincinnati, priority 2016, dated 2021).

Experiment: Tm value by temperature gradient gel electrophoresis (TGGE) assay
Type: physicochemical
Protocol: Cell culture. Human breast cancer luciferase-overexpressing BT474 and MDA-MB-231 cells were maintained in DMEM medium (Hyclone, Thermo Scientific) supplemented with 10% fetal bovine serum (FBS, Sigma) and 1% penicillin/streptomycin (Corning) at 37° C. in a humidified atmosphere with 5% CO2.^53 • Generation of pRNA nanoparticles. The two strands of pRNA were synthesized with the DNA templates, which were amplified with overlapping primers (Sigma) by PCR methods, using a T7 promoter-controlled in vitro RNA transcription system as previously described^33 (Table 1). […] The hydrodynamic diameter and Tm value of pRNA nanoparticles were determined using dynamic light scattering and TGGE assay, respectively, as previously described.^54 The AFM imaging of the pRNA nanoparticles was performed at the University of Nebraska Medical Center imaging facility as previously reported.^55 Briefly, the pRNA nanoparticles (5 μL) were deposited on APS modified mica ^56 for a total of 2 min of incubation time. […] After washing three times with PBS, the cellular uptake of pRNAs was determined using a BD LSRFortessa™ flow cytometer. • Real-time PCR. […] The expression of MED 1, TFF1, c-Myc, cyclinD1 and MMP-9 was analyzed using GAPDH as the internal reference. • Western blot analyses. […]

B1: pRNA-HER2apt-siMED1: 3-WJ pRNA nanoparticle bearing a HER2-targeting RNA aptamer and two different MED1 siRNAs; strands p1 SEQ ID NO: 3, p2 SEQ ID NO: 4 (nucleic acid)
chain 1: GGACAGUGAAAGUGAGUCAAAGGAUCAAUCAUGGCCAAAGAUGUUACUUUGAGAGCCUU
chain 2: GGCUCUCAAAGUAACAUCUAAGGCCAUGUGUAUGUGGGGGGAGGACGAUGCGGUCUGCUGUGCUUGAUAUGCCCCAGACGACUCGCCCCCCACAUACUUUGUUGAUCCAAUGACUCACUUUCACUGUCCUU
modifications: 2'-F modification; third strand may lack entry; pRNA-HER2apt-siMED1, p1; pRNA-HER2apt-siMED1, p2
- Tm value: 78±2 °C
